Data as given in patent US20240018252A1 (Pfizer, published 2024).

Columns and labels:
human BCMA = target: T1, human BCMA (human, UniProt Q02223 1-54); test: SPR, immobilised IgG, 37° C
T1 construct: also called huBCMA; hBCMA
T1 sequence: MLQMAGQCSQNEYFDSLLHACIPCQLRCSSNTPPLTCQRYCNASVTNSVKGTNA

cyBCMA = target: T2, cyBCMA (cynomolgus, UniProt A0A2K5UD97 1-53); test: SPR, immobilised IgG, 37° C
T2 construct: Soluble analyte in SPR; construct not described; also called cyno BCMA
T2 sequence (A0A2K5UD97 entry or part of it): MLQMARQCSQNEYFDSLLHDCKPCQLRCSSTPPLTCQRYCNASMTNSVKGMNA

Binder | T½ (human BCMA) | T½ (cyBCMA)
L3.PY/L1.AH/H2.QR (antibody, V domains shown, IgG in the assay) VH: EVQLLESGGGLVQPGGSLRLSCAASGFTFGSYAMTWVRQAPGKGLEWVSAISGSGGNTFYADQRKGRFTISRDNSKNTLYLQMNSLRAEDTAVYYCARVSPIASGMDYWGQGTLVTVSS VL: EIVLTQSPGTLSLSPGERATLSCRASQSVSAHYLAWYQQKPGQAPRLLIYGASSRATGIPDRFSGSGSGTDFTLTISRLEPEDFAVYYCQHYPYPPSFTFGQGTKVEIK | 6.39 min | 2.35 min
L3.PY/L1.PH/P6E01 (antibody, V domains shown, IgG in the assay) VH: EVQLLESGGGLVQPGGSLRLSCAASGFTFGSYAMTWVRQAPGKGLEWVSAISGSGGNTFYADSVKGRFTISRDNSKNTLYLQMNSLRAEDTAVYYCARVSPIASGMDYWGQGTLVTVSS VL: EIVLTQSPGTLSLSPGERATLSCRASQSVSPHYLAWYQQKPGQAPRLLIYGASSRATGIPDRFSGSGSGTDFTLTISRLEPEDFAVYYCQHYPYPPSFTFGQGTKVEIK | 12.7 min | 1.46 min
L3.PY/L1.FF/P6E01 (antibody, V domains shown, IgG in the assay) VH: EVQLLESGGGLVQPGGSLRLSCAASGFTFGSYAMTWVRQAPGKGLEWVSAISGSGGNTFYADSVKGRFTISRDNSKNTLYLQMNSLRAEDTAVYYCARVSPIASGMDYWGQGTLVTVSS VL: EIVLTQSPGTLSLSPGERATLSCRASQSVSSFFLAWYQQKPGQAPRLLIYGASSRATGIPDRFSGSGSGTDFTLTISRLEPEDFAVYYCQHYPYPPSFTFGQGTKVEIK | 8.18 min | 1.96 min
L3.PY/L1.AH/H2.YQ (antibody, V domains shown, IgG in the assay) VH: EVQLLESGGGLVQPGGSLRLSCAASGFTFGSYAMTWVRQAPGKGLEWVSAISYQGGNTFYADSVKGRFTISRDNSKNTLYLQMNSLRAEDTAVYYCARVSPIASGMDYWGQGTLVTVSS VL: EIVLTQSPGTLSLSPGERATLSCRASQSVSAHYLAWYQQKPGQAPRLLIYGASSRATGIPDRFSGSGSGTDFTLTISRLEPEDFAVYYCQHYPYPPSFTFGQGTKVEIK | 6 min | 2.68 min
L3.PY/L1.AH/H3.AE (antibody, V domains shown, IgG in the assay) VH: EVQLLESGGGLVQPGGSLRLSCAASGFTFGSYAMTWVRQAPGKGLEWVSAISGSGGNTFYADSVKGRFTISRDNSKNTLYLQMNSLRAEDTAVYYCARVSPIAAEMDYWGQGTLVTVSS VL: EIVLTQSPGTLSLSPGERATLSCRASQSVSAHYLAWYQQKPGQAPRLLIYGASSRATGIPDRFSGSGSGTDFTLTISRLEPEDFAVYYCQHYPYPPSFTFGQGTKVEIK | 6.7 min | 3.25 min
L3.PY/L1.AH/H3.YA (antibody, V domains shown, IgG in the assay) VH: EVQLLESGGGLVQPGGSLRLSCAASGFTFGSYAMTWVRQAPGKGLEWVSAISGSGGNTFYADSVKGRFTISRDNSKNTLYLQMNSLRAEDTAVYYCARVSPIYAGMDYWGQGTLVTVSS VL: EIVLTQSPGTLSLSPGERATLSCRASQSVSAHYLAWYQQKPGQAPRLLIYGASSRATGIPDRFSGSGSGTDFTLTISRLEPEDFAVYYCQHYPYPPSFTFGQGTKVEIK | 7.73 min | 2.2 min
L3.PY/L1.AH/P6E01 (antibody, V domains shown, IgG in the assay) VH: EVQLLESGGGLVQPGGSLRLSCAASGFTFGSYAMTWVRQAPGKGLEWVSAISGSGGNTFYADSVKGRFTISRDNSKNTLYLQMNSLRAEDTAVYYCARVSPIASGMDYWGQGTLVTVSS VL: EIVLTQSPGTLSLSPGERATLSCRASQSVSAHYLAWYQQKPGQAPRLLIYGASSRATGIPDRFSGSGSGTDFTLTISRLEPEDFAVYYCQHYPYPPSFTFGQGTKVEIK | 9.19 min | 2.02 min
L3.PY/L1.AH/H3.AQ (antibody, V domains shown, IgG in the assay) VH: EVQLLESGGGLVQPGGSLRLSCAASGFTFGSYAMTWVRQAPGKGLEWVSAISGSGGNTFYADSVKGRFTISRDNSKNTLYLQMNSLRAEDTAVYYCARVSPIAAQMDYWGQGTLVTVSS VL: EIVLTQSPGTLSLSPGERATLSCRASQSVSAHYLAWYQQKPGQAPRLLIYGASSRATGIPDRFSGSGSGTDFTLTISRLEPEDFAVYYCQHYPYPPSFTFGQGTKVEIK | 5.85 min | 2.9 min
